Experiment [1] deals with bovine aortic smooth muscle cells. The experiment can be described thus: [3H]-thymidine incorporation into smooth muscle cell DNA. Type of experiment: cell-based. The following applies: purification steps of HB-EHM from 8 L U-937 conditioned medium. As to the method:
Conditioned medium was assayed for growth factor activity directly, as described below, using either fibroblasts (i.e., BALB/c mouse 3T3 cells), epithelial cells (i.e., human keratinocytes), or smooth muscle cells (i.e., bovine aortic smooth muscle cells, BASMC). Alternatively, CM was first fractionated by fast protein liquid chromatography (FPLC, Pharmacia, Piscataway, N.J.) by applying 500 ml of the CM to a TSK-heparin 5PW column (8×75 mm, TOSOHAAS, Philadelphia, Pa.). The column was washed with 10 column volumes of equilibration buffer (0.2M NaCl, 0.01M Tris-HCl, pH 7.5), and bound protein was eluted with a 40 ml linear gradient of 0.2-2M NaCl in 0.01M Tris-HCl , pH 7.4 at 1 ml/min. Fractions (2.5 ml) were tested for growth factor activity by measuring the effect of aliquots of the fractions on DNA synthesis in, or the proliferation of, BALB/c mouse 3T3 cells; such activity was monitored by assaying the incorporation of [^3 H]-thymidine into DNA and/or by measuring the increase in cell number. Measurement of DNA synthesis in BALB/c mouse 3T3 cells was performed as described by Shing et al. (223 Science 1296, 1984, hereby incorporated by reference). One unit of BALB/c mouse 3T3 stimulation activity was defined as the amount of growth factor required to stimulate half-maximal DNA synthesis in BALB/c mouse 3T3 cells under the conditions described in Shing et al. (supra). […]
For orientation: Uptake of a labelled nucleoside into DNA is a usual measure of proliferation.

Experiment [2] concerns EGF receptors on A-431 cells. The experiment is described as follows: Competitive [125I]EGF binding to A-431 cells. On the set-up: species or system human. As to the method: Competitive binding assays were used to measure this interaction and were performed as follows.
Another experiment relates to EGF receptor. The experiment can be described thus: EGF receptor autophosphorylation in A-431 cells (anti-phosphotyrosine Western blot). Type of experiment: cell-based, human. The following applies: 5 ng/ml, 15 minutes. How it is done:
This was shown by plating A-431 cells in 6-well plates and culturing in Dulbecco's Modified Eagle's Medium (DMEM) containing 10% fetal bovine serum and antibiotics. […] After 15 minutes, the cells were washed with ice-cold phosphate-buffered saline containing 0.4 mm EDTA, 10 mM Na-fluorate, 10 mM Na-pyrophosphate and 0.4 mM Na-orthovanadate, scraped and lysed in 100 μl of PI/RIPA buffer [1% NP-40 (Pierce, Rockford, Ill.), 1% deoxycholate (Aldrich, Milwaukee, Wis.), 0.1% SDS, 1% aprotinin (Boehringer-Mannheim, Indianapolis, Ind.), 1 mM PMSF (Pierce), 2 mM EDTA (Sigma), 10 mM Na-fluorate, (Sigma, St. Louis, Mo.), 10 mM Na-pyrophosphate (Baker, Phillipsburg, N.J.), 0.4 mM Na-orthovanadate, (Aldrich), 10 mM iodoacetamide (Aldrich) in phosphate buffered saline]. Thirty μl of supernatant clarified by spinning for a 5 minute period in a microfuge was analyzed by reducing SDS/polyacrylamide gel electrophoresis (6% polyacrylamide gel). […] A standard of phosphorylated EGF receptor was purchased from UBI (Lake Placid, N.Y.).

For experiment [3], the system named is bovine aortic smooth muscle cells (BASMC). The experiment is described as follows: Bovine aortic smooth muscle cell proliferation by cell counting. The following applies: 100 pg/ml; cells counted after three days, 1% calf serum. The class given is cell-based. How it is done:
Bovine aortic smooth muscle cell proliferation was also assayed by counting cell number following growth factor stimulation. In these experiments, cells were plated sparsely in 24 well plates in DMEM/10% bovine calf serum/1% GPS (100% GPS is glutamine 29.2 mg/ml, penicillin 10,000 units/ml, streptomycin sulfate 10,000 μg/ml; GIBCO, Grand Island, N.Y.) at 10^4 cells/well. Test samples were then added and, after three days, cells were removed by trypsinization and counted in a Coulter counter (Coulter, Hialeah, Fla.).
BASMC were plated in DMEM, 10% calf serum, 100 U/ml penicillin, 100 μg/ml streptomycin sulfate at 5×10^3 cells/well in a 24 well plate, and, after attachment of the cells (e.g., following an overnight incubation), the media was replaced with DMEM, 1% calf serum, and penicillin and streptomycin as above. HB-EHM, recombinant human EGF (Creative Biomolecules, Hopkinton, Mass.), or recombinant PDGF (Creative Biomolecules, Hopkinton, Mass.) was then added to the wells. Cells were counted after three days.

B1: HB-EHM: novel heparin binding growth factor with EGF-homologous segment, purified from U-937 lymphoma cell conditioned medium, about 22 kD (protein)
chain: RVTLSSKPQALATPNKEEHGKRKKKGKGLGKKRDPCLRKYKDFCIHGECKYVKELRAPSCICHPGYHGERCHGLS
modifications: O-linked glycosylation (suggested by O-glycanase treatment; the threonines predicted at positions 2 and 12 of the form first sequenced were not detected in protein sequencing)
Take B1: the “Maximal Stimulation” value in experiment [1] was found to be 0.5 ng/mL. In experiment [2] (maximal competition, confluent A-431 cells), the “inhibition of the binding of [125I]EGF to A-431 cells” value was around 100%. Besides, the “binding to EGF receptors on A-431 cells” value in experiment [2] (purified HB-EHM) is given as “found to bind”. For the same molecule, in the experiment with EGF receptor, the “autophosphorylation of the EGF receptor (170 kDa protein)” value is “triggered autophosphorylation”. The “increase in BASMC proliferation” value in experiment [3] is 2.5 fold.

Source of the values: patent publication US5811393A (The Childrens Medical Center Corp., priority 1993, dated 1998).
